Patent publication US20140227225, “HCV Helicase Inhibitors and Methods of Use Thereof” (UWM RESEARCH FOUNDATION, INC., published 2014)

Target: SSB single-stranded DNA-binding protein (Escherichia coli, UniProt P0AGE0 P0AGE0:2-178)
Assay: FP; complex of 5 nM Cy5-dT15 with 20 nM SSB, disrupted by compounds; 25 mM MOPS pH 7.5, 1.25 mM MgCl2
Settings: tags: Promega; chain copies: 4; label: 5'-Cy5
Description: The Escherichia coli SSB assay was performed in a total volume of 20.2 μl in 384-well, flat-bottom, low volume, black microplates (Greiner Bio-One).
For IC₅₀ determination, assays were performed with 60 μl total volume in black flat bottomed 384-well microplates (Corning). First, 3.0 μl of DMSO or compound dissolved in DMSO was added, such that the final concentration of DMSO was 5% (v/v) in each assay.

Chain of SSB single-stranded DNA-binding protein (P0AGE0 2-178, one chain of several): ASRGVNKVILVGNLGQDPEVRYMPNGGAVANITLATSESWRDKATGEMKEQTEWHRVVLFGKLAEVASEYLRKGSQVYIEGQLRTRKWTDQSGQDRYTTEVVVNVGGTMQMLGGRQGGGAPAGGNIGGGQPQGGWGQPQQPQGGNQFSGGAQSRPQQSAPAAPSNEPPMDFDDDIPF

TTTTTTTTTTTTTTT (ssDNA) [Cy5-dT15]
binding result: binds
